Measured values from article PMC10023573.

Test system: S9.6 anti-DNA:RNA hybrid monoclonal antibody, gold conjugate
Test: immuno electron microscopy
Details: 10 ug/mL S9.6-gold, psoralen cross-linked, co-transcriptional R-loop (RNA hybrid), S9.6-gold 10 ug/mL with 80-100 ng pFC53, 1 h at 37 C, then 0.2% glutaraldehyde 15 min at 37 C, labeling buffer, salt and pH not given

Row | Substance | binding signal (% of molecules labeled) | binding signal (% of molecules labeled) (labels cluster in Airn region)
1 | pFC53 circular, T3-transcribed, R-loop in mAirn | 50 | 
2 | pFC53 linear, T3-transcribed, R-loop in mAirn |  | 50
